# T1: human CTLA4 (human, UniProt P16410 36-161, limits assumed)
# T1 sequence (looked up): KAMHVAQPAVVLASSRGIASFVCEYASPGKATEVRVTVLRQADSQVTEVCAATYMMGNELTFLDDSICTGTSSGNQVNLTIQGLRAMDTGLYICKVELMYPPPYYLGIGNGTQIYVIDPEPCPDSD
# T2: human ICOS (human, UniProt Q9Y6W8 21-140, limits assumed)
# T2 sequence (looked up): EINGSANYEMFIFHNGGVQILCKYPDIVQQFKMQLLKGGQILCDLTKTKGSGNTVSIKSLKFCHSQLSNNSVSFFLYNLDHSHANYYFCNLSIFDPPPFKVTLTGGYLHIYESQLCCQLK
# T3: mouse PD-1 (mouse, UniProt Q02242 25-169, limits assumed)
# T3 sequence (looked up): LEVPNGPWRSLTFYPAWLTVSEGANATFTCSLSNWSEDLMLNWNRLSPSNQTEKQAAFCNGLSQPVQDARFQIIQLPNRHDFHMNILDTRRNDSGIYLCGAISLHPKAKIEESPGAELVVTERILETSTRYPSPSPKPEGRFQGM
# Legend:
# [1] = biological target: T4, human PD-1 on cells (293T cells transfected with human PD-1) (human, UniProt Q15116 25-288); assay: FACS binding to 293T cells expressing human PD-1, MFI
# T4 construct: whole, on cells; Also used as the target for the functional rows, where PD-1 stands on human T cells
# Protocol: (§1) The cells were incubated with the indicated antibody (20 ug/ml with the dilution of ⅕) at 4° C. for 1 h. Cells were washed three times with FACS buffer. A secondary antibody (PE Goat anti-mouse: 1:200; PE mouse anti-human: 1:10) was added to the cells at 100 ul/well, and incubated at 4° C. for 40min. Cells were washed three times with FACS buffer and analyzed by FACS Array.
# [2] = biological target: T5, human PD-1 extracellular domain fused with human Fc tag (hPD-1-hFc) (human); assay: ELISA binding to plate-bound PD-1, OD450 (methods similar to Example 2: plate coated with PD1-hFc)
# T5 construct: also called human PD-1-hFc
# Protocol: (§2) ELISA binding analysis was conducted based on human PD-1-hFc Protein. 96-well plates (Costar, Cat No:9018) were coated with 100 μL of 2 μg/ml PD1-hFc (CrownBio) in coating buffer (PBS, Hyclone, Cat No:SH30256.01B) overnight at 4° C. The wells were aspirated and non-specific binding sites were blocked by adding 200 μL of blocking buffer with 1% (w/v) of bovine serum albumin (BSA, Roche, Cat No: 738328) and incubating for 1 hour at 37° C. After the plates are washed three times with wash buffer (PBS with 0.05%(v/v) Tween20 (Sigma, Cat No:P1379), 100 μL/well of a suitable dilutions of hybridoma supernatant in blocking buffer were added and incubated at room temperature for 1 hour. The plates were washed and incubated with 100 μL/well of Goat anti-Mouse IgG (H+L) (Thermo, Cat No: 31432) in blocking buffer for 60 min. After the plates were washed, 100 μL/well of substrate solution (TMB(eBioscience, Cat No:00-4201-56) was added and the plates were incubated for 2min at room temperature. 100 μL/well of stop solution (2N H2SO4) was added to stop the reaction. The colorimetric signals were developed and read at 450 nm using a Auto Plate SpectraMax Plus (Supplier: Molecular Devices; Model: MNR0643; Software: SoftMax Pro v5.4).
# [3] = biological target: T6, human PD-1 (construct not stated) (human, UniProt Q15116 25-167, limits assumed); assay: SPR (Biacore 3000), antibody captured on the chip, PD-1 as analyte, 1:1 Langmuir fit
# T6 construct: also called PD-1 analyte
# Protocol: To characterize the binding characteristics of the humanized antibodies, the binding kinetics between PD-1 and PD-1 antibodies were measured by Biacore3000 and recorded with a data collection rate of 1 Hz. The polyclonal rabbit anti-mouse IgG (GE, BR-1008-38) was diluted with 10 mM pH 5.0 sodium acetate and immobilized onto reference and experiment flow cells of a CMS biosensor chip to around 15000 RU using an amine coupling kit (GE, BR10050). In the beginning of each cycle, diluted test antibody (1.5 μg/mL) was injected over experiment flow cell for 1 minute to be captured. PD-1 analyte series were prepared by diluting the stocks with running buffer to 100nM followed by 2× serial dilution in the same buffer down to 0.78nM. Analytes were injected in series over the reference and experiment flow cells for 3 minutes at a flow rate of 30 μL/minute. Then running buffer (PBS with 0.05% P20) was allowed to flow over for 10 minutes at a flow rate of 30 μL/minute. At the end of each cycle, the biosensor surface was regenerated with 3 minutes injection of 10 mM pH1.7 Glycine-HC1 buffer at a flow rate of 10 μL/minute. For each analyte sample injection (i.e. each cycle), binding responses obtained from the experimental biosensor surface were double referenced by subtracting simultaneously recorded responses from the reference surface followed by additional subtraction of responses from a single referenced running buffer sample. The association and dissociation rate constants (ka and kd) were determined simultaneously by fitting double-referenced sensorgrams of the entire titration series to Langmuir model (1:1) using Biaevaluation 4.0 software. The dissociation constant, KD, was calculated from the determined rate constants by the relation KD =kd/ka. […] The Biocore binding curves are shown in FIGS. 10 and 17A, top panel, and the quantified binding data are summarized in FIGS. 10 and 17A, bottom panel.
# [4] = biological target: T4, human PD-1 on cells (293T cells …); assay: FACS ligand blockage: biotin-labeled PD-L1 binding to 293T cells expressing human PD-1, MFI
# Protocol: (§3) Various concentrations of the testing hybridoma antibodies were added to the cell suspension and incubated at 4° C. for 60 minutes in 96 well plates. […] Plates were washed 3 times, and mouse anti-biotin PE antibody (Biolgend, cat# 409004) was added. Flow cytometric analyses were performed using a FACS Array.
# [5] = biological target: T7, human PD-1 extracellular domain fused with mouse Fc (PD-1-mFc) (human, UniProt Q15116 25-170); assay: ELISA ligand blockage: biotinylated PD-L1-mFc binding to plate-bound PD-1, OD450 (methods similar to Example 2: PD-1-mFc coated)
# T7 construct: extracellular domain; not used because of the label; also called hPD-1-mFc; human PD-1-mouse Fc fusion protein
# Protocol: (§4) PD-1-mFc antigen (CrownBio) was suspended in PBS (Hyclone,Cat No:SH30256.01B) buffer (2 ug/ml, 100 ul/ well) and coated on the 96 well plate (costar, Cat No.:9018) 4° C. overnight. Plates were washed 3 times using washing buffer: PBS+0.05% Tween 20(Sigma, Cat No.:P1379). 200 ul of blocking buffer (PBS+1%BSA(Roche, Cat No.:738328)), was added to each well, incubated at 37° C. for 1 hour, and washed 3 times. Various concentrations (suitable dilutions of hybridoma supernatant in PBS) of the anti-PD-1 Abs were added to the wells (100 μl/well) and incubated at 37° C. for 1 hour. […] Secondary antibody (Avidin HRP eBioscience cat No.:E07418-1632, 1:500, 100 ul/well) was added, incubated at 37 ° C. for 0.5 hour, and washed 3 times. TMB (Sigma, Cat No.: T0440, 100 ul/well) was added, and incubated for 3 min at RT. To stop the reaction, 2N H2SO4 (100 ul/well), was added. The colorimetric signals were developed and read at 450 nm using a Auto Plate SpectraMax Plus (Supplier: Molecular Devices; Model: MNR0643; Software: SoftMax Pro v5.4).
# [6] = biological target: T4, human PD-1 on cells (293T cells …); assay: FACS blockage on hPD-1-293T cells, competitor biotin PD-L1
# Protocol: as §3
# (§5) The purified hybridoma antibodies were characterized further based on ELISA and FACS analyses.
# [7] = biological target: T5, human PD-1 extracellular domain fused …; assay: ELISA binding (summary table)
# Protocol: as §2, §5
# [8] = biological target: T5, human PD-1 extracellular domain fused …; assay: ELISA on coated PD1-hFc
# Protocol: as §2, §5
# [9] = biological target: T4, human PD-1 on cells (293T cells …); assay: FACS blockage on hPD-1-293T cells, competitor biotin PD-L2
# Protocol: as §3, §5
# [10] = biological target: T7, human PD-1 extracellular domain fused …; assay: blockage ELISA, coated PD-1-mFc, competitor PDL-1-mFc-biotin
# Protocol: as §4, §5
# [11] = biological target: T1, human CTLA4; assay: Interaction with CTLA4, ICOS CD28; assay not detailed
# [12] = biological target: human CD28 (human, UniProt P10747 19-152, limits assumed); assay: as above
# [13] = biological target: T2, human ICOS; assay: as above
# [14] = biological target: T4, human PD-1 on cells (293T cells …); assay: FACS on hPD-1-293T cells
# Protocol: as §1, §5
# [15] = biological target: T6, human PD-1 (construct not stated); assay: Biacore, antibody captured, PD-1 analyte
# Protocol: (§6) To further characterize the binding characteristics of the antibodies, 10 hybridoma antibodies were profiled using Biacore (Biacore 3000, GE) to elucidate binding kinetics and calculate equilibrium binding constants. This assay was performed by capture method, using the mouse antibody capture kit (BR-1008-38, GE). After diluting anti-mouse Fc mab to 25 μg/ml in pH 5.0 immobilization buffer, immobilization was conducted with the parameters shown in Table 6 at a flow rate of 5 μl/min. The kinetic runs were done by 1) injecting ligand for typical 0.5-1 min at flow rate of 10 μl/min.; 2) injecting analytes of choice for typical 3 min followed by dissociation in running buffer (1× PBS-P20) for typical 5-10 min at flow rate of 30 μl/min.; and 3) injecting regeneration solution 10 mM Glycine pH1.7 for typical 1-2 min at flow rate of 10 μl/min.
# [16] = biological target: T6, human PD-1 (construct not stated); assay: Biacore (summary table; unit from Table 7)
# Protocol: as §6
# [17] = biological target: T3, mouse PD-1; assay: assays not detailed
# [18] = biological target: T7, human PD-1 extracellular domain fused …; assay: blockage ELISA, competitor PDL-1-mFc-biotin (summary table; IC50 in ng/ml in Table 2)
# Protocol: as §4
# T6 sequence (Q15116 25-167 limits assumed): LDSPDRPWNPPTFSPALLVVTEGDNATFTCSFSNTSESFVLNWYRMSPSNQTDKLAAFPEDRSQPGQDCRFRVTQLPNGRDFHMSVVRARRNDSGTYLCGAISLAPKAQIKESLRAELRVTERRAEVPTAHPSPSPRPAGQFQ
# T5 sequence (chain, as listed by the source limits assumed): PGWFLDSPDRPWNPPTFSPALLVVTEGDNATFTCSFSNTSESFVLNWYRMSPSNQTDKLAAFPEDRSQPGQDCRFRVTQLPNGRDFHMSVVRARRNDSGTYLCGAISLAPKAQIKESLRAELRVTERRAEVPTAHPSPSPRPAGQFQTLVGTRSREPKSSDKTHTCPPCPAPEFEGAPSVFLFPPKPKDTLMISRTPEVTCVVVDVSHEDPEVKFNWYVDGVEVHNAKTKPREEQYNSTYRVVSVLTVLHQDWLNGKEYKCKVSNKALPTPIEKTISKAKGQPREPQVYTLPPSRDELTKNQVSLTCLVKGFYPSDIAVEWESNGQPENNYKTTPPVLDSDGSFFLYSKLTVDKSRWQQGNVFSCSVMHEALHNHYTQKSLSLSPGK
# T4 sequence (Q15116 25-288): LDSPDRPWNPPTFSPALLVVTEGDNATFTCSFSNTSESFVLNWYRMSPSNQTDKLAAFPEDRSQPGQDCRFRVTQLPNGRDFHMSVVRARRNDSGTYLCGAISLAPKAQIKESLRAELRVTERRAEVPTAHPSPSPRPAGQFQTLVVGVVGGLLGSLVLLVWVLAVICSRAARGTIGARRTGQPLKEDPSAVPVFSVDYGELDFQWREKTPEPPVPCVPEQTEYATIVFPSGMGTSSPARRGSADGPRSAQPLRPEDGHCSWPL
# T7 sequence (Q15116 25-170): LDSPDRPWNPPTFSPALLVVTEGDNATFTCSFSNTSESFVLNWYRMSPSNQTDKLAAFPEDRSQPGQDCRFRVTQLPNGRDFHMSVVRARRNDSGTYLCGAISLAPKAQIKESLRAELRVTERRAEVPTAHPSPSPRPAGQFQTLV
# Sequence of human CD28 (P10747 19-152 limits assumed): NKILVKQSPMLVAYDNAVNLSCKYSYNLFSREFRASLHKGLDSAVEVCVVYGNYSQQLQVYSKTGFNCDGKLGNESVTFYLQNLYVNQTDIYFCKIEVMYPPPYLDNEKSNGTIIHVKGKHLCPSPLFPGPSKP
EC50 [1],EC50 [2],IC50 [4],IC50 [5],IC50 [6],EC50 [7],EC50 [8],IC50 [9],IC50 [10],binding result [11],binding result [12],binding result [13],EC50 [14],Ka [15],Kd [15],koff [15],kon [15],Kd [16],binding result [17],IC50 [18],further results,Binder
0.0763 µg/mL,0.031 µg/mL,0.026 µg/mL,0.579 µg/mL,–,–,–,–,–,–,–,–,–,–,–,–,–,–,–,–,Ka [3]: 5.78e+09 M⁻¹; Kd [3]: 0.173 nM; koff [3]: 0.000119 s⁻¹; kon [3]: 687000 M⁻¹ s⁻¹,"humanized 13F1-hIgG4 (antibody, IgG4 constant region with F234A and L235A, already in the entry; also called h13F1-IgG4; hu-13F1-hIgG4) heavy: not shown light: EIVLTQSPATLSLSPGERATLSCRANSSVSSMHWYQQKPGQSPEPWIYAISNLAFGVPARFSGSGSGTDYTLTISSLEPEDFAVYYCQQWSSRPPTFGQGTKLEIKRTVAAPSVFIFPPSDEQLKSGTASVVCLLNNFYPREAKVQWKVDNALQSGNSQESVTEQDSKDSTYSLSSTLTLSKADYEKHKVYACEVTHQGLSSPVTKSFNRGEC"
0.0668 µg/mL,0.0357 µg/mL,0.0295 µg/mL,0.985 µg/mL,–,–,–,–,–,–,–,–,–,–,–,–,–,–,–,–,–,"humanized 13F1-hIgG1 (antibody, IgG1 constant region with D265A, already in the entry; also called h13F1-IgG1; hu-13F1-hIgG1) heavy: not shown light: EIVLTQSPATLSLSPGERATLSCRANSSVSSMHWYQQKPGQSPEPWIYAISNLAFGVPARFSGSGSGTDYTLTISSLEPEDFAVYYCQQWSSRPPTFGQGTKLEIKRTVAAPSVFIFPPSDEQLKSGTASVVCLLNNFYPREAKVQWKVDNALQSGNSQESVTEQDSKDSTYSLSSTLTLSKADYEKHKVYACEVTHQGLSSPVTKSFNRGEC"
–,–,–,–,0.038 µg/mL,0.0244 µg/mL,0.0244 µg/mL,0.141 µg/mL,0.982 µg/mL,no binding,no binding,no binding,0.0527 µg/mL,4.02e+10 M⁻¹,0.0249 nM,2.83e-05 s⁻¹,1.14e+06 M⁻¹ s⁻¹,0.0249 nM,no binding,0.982 µg/mL,–,"7D3 murine anti-PD-1 antibody (antibody, V domains shown, Purified hybridoma antibody; also called 7D3-mIgG1) VH: EVKLVESGGGLVKPGGSLKLSCGASGFTFSSYGMSWVRQTPEKRLEWVATISGGGRDIYYPDSVKGRLTISRDNAKNNLYLQMSSLRSEDTALYYCVRQYYDDWFAYWGQGTLVTVSA VL: DIVLTQSPATLSVTPGDSVSLSCRASQSISNDLHWYQQKSHESPRLLIKYVSQSISGIPSRFSGSGSGTDFTLSINSVETEDFGMYFCQQSDSWPLTFGAGTKLELKR"
–,–,–,–,0.0833 µg/mL,0.0132 µg/mL,0.0132 µg/mL,0.251 µg/mL,1.46 µg/mL,no binding,no binding,no binding,0.109 µg/mL,3.01e+10 M⁻¹,0.0332 nM,2.63e-05 s⁻¹,791000 M⁻¹ s⁻¹,0.0332 nM,no binding,1.46 µg/mL,–,"4C10 murine anti-PD-1 antibody (antibody, V domains shown, Purified hybridoma antibody; also called 4C10-mIgG1) VH: QVQLKQSGPGLVQPSQNLSVTCTVSGFSLTTYGVHWVRQSPGKGLEWLGVIWSGGSTDYNAAFISRLTISKDNARSQVFFKMNSLQVNDTAMYYCAREKSVYGNYVGAMDYWGQGTSVTVSS VL: SIVMTQTPKFLLVSAGDRVTITCKASQSVSDDVAWYQQKPGQSPKLLIYYAFNRYTGVPDRFTGSGYGTDFTFTISTVQSEDLAVYFCQQDYRSPWTFGGGTKLEIKR"

# Source: US20170267762A1 (APOLLOMICS, published 2017)
